# Assay results taken from PMC12000298 (Communications Biology, 2025).
# Read-outs that look alike come from different tables or passages of the source.
# B1: CUE-G2BR^AUP1 (AUP1 C-terminal region, aa292-410) (domain or fragment)
# chain: SPDVQLATLAQRVKEVLPHVPLGVIQRDLAKTGCVDLTITNLLEGAVAFMPEDITKGTQSLPTASASKFPSSGPVTPQPTALTFAKSSWARQESLQERKQALYEYARRRFTERRAQEAD
# B2: Ube2G2 (untagged, from 6xHis-SUMO-Ube2G2) (enzyme)
# chain: MAGTALKRLMAEYKQLTLNPPEGIVAGPMNEENFFEWEALIMGPEDTCFEFGVFPAILSFPLDYPLSPPKMRFTCEMFHPNIYPDGRVCISILHAPGDDPMGYESSAERWSPVQSVEKILLSVVSMLAEPNDESGANVDASKMWRDDREQFYKIAKQIVQKSLGL
# Tests used:
# Experiment in all cases: SEC
# [1] = biological target: B2
# [2] = biological target: GST-Gp78c (aa309-643, RING-CUE-G2BR) (UniProt Q9UKV5 309-643)
# [3] = biological target: B2; remark: listed apart in the source
# GST-Gp78c (aa309-643, RING-CUE-G2BR), sequence (Q9UKV5 309-643): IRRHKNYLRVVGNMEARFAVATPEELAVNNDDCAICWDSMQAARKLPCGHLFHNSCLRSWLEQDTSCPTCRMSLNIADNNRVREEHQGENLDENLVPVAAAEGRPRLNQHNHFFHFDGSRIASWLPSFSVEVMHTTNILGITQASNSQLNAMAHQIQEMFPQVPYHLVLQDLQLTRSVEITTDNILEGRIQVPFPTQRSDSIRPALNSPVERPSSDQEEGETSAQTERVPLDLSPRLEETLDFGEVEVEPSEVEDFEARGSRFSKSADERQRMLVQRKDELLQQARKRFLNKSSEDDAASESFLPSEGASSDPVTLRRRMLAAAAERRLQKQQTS
Binder,binding result [3],further results
B1,,binding result [1]: binds
B2,,binding result [2]: binds
GGSSSSWARQESLQERKQALYEYARRRFTER [SBP-His6-G2BR^AUP1],binds,
GGSSSADERQRMLVQRKDELLQQARKRFLNKS [SBP-His6-G2BR^Gp78],binds,
